The values below come from US20060014927A1 (US Dept. of Health and Human Services, published 2006).

Test [1] concerns the target T1, Grb2 adapter protein (UniProt P62993 1-217).
T1 construct: Endogenous protein in cell lysates or whole cells
In words: MDA-MB-453 lysates incubated with inhibitor; anti-Grb2 co-immunoprecipitation, anti-pTyr Western blot; p185erbB-2 as competitor. As to the method:
Cell lysates were prepared from the serum-treated erbB-2-overexpressing breast cancer cell line MDA-MB-453 using 1% Triton X-100 in PBS containing 0.2 mM NaVO₄. Lysates were incubated with the present inventive cyclic peptide inhibitors specified in Example 1 and Example 12, at concentrations of 0.1, 0.4, 2, 10 and 50 μM. No inhibitor was used as a control. […] Grb2 and associated Grb2-binding proteins were immunoprecipitated from each lysate (500 μg) with anti-Grb2 antibodies and collected using protein A Sepharose using methods previously described. Immunoprecipitated proteins were separated by SDS-PAGE on 8-16% gradient gels (Novex). pTyr-containing proteins were detected by Western blotting using anti-phosphotyrosine antibodies (Upstate Biotechnology Inc.). Previous experiments have shown that a major tyrosine phosphorylated protein in MDA-MB-453 cells is p185^erbB-2, which is overexpressed as a consequence of gene amplification. […] A dose-dependent inhibition of the p185^erbB-2 receptor association with the Grb2 adapter protein was observed.

For test [2], the target named is T2, recombinant GST-Grb2 SH2 protein (UniProt P62993 60-152).
T2 construct: not shown: glutathione S-transferase (GST) fusion partner
T2 sequence (P62993 60-152): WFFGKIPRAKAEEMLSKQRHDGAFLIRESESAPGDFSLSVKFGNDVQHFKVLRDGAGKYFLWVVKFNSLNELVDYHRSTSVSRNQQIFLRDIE
In words: comparison with the Glu1 analogue as reference; assay not named in the sentence (Biacore competition of Example 7 understood). The procedure:
(§1) The competitive binding affinity of the present inventive compounds was assessed using Biacore Surface Plasmon Resonance (SPR) methods utilizing a Biacore 2000 instrument. […] Specifically, competitive binding assays were carried out at 5 μl/min flow rate, with GST-Grb2-SH2 (150-250 nM) and a cyclic peptide inhibitor (10 nM-2 mM) in phosphate-buffered saline (PBS), pH 7.4, containing 0.01% P-20 surfactant (Biacore, Inc., Piscataway, N.J.) for a total of 10 min. The change in response units (RU) at equilibrium was measured from the […] and the percent of control (no added peptide) was calculated. […] The results represent the mean value of at least two independent experiments.

Test [3] concerns the target T2, recombinant GST-Grb2 SH2 protein. In words: Biacore SPR competition; inhibitor mixed with GST-Grb2 SH2 (150-250 nM), binding to immobilised biotin-SHC(pTyr-317)-9-mer as competitor. The procedure:
as §1
In general terms: In SPR one partner is held on a chip, and binding of the other changes the refractive index at the surface.

Bridges are numbered along the chain shown (N, C = ends). [ ]: non-standard residue; d: D form. Gla = N[C@@H](CC(C(=O)O)C(=O)O)C(=O)O; Aad = N[C@@H](CCCC(=O)O)C(=O)O

T1 sequence (P62993 whole entry): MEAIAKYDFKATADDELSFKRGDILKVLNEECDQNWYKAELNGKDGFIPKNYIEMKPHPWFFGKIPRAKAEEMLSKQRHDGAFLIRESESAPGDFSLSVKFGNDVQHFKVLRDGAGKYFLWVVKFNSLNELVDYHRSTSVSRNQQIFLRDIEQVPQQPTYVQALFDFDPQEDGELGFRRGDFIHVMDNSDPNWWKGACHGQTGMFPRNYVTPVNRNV

B1: cyclo(CH2CO-Gla1-Leu2-Tyr3-Glu4-Asn5-Val6-Gly7-Met8-Tyr9-Cys)-amide (peptide)
peptide: {CH2CO}-[Gla]LYENVGMYC-NH2
modifications: thioether N-10
SMILES: CSCC[C@@H]1NC(=O)CNC(=O)[C@H](C(C)C)NC(=O)[C@H](CC(N)=O)NC(=O)[C@H](CCC(=O)O)NC(=O)[C@H](Cc2ccc(O)cc2)NC(=O)[C@H](CC(C)C)NC(=O)[C@H](CC(C(=O)O)C(=O)O)NC(=O)CSC[C@@H](C(N)=O)NC(=O)[C@H](Cc2ccc(O)cc2)NC1=O
notes: Synthetic thioether-cyclised, non-phosphorylated peptide (L = S)
The IC50 is the concentration that inhibits the measured activity by half. As for B1, the IC50 in test [1] was 2000 nM; in test [3] it was 640 nM. The “fold improvement of binding efficacy over Glu^1” value in test [2] is 31 fold.

B2: cyclo(CH2CO-Adi1-Leu2-Tyr3-Glu4-Asn5-Val6-Gly7-Met8-Tyr9-Cys)-amide (peptide)
peptide: {CH2CO}-[Aad]LYENVGMYC-NH2
modifications: thioether N-10
notes: Synthetic thioether-cyclised, non-phosphorylated peptide
As to B2, in test [2], the “fold improvement of binding efficacy over Glu^1” value worked out at 6 fold. Also, in test [3], the IC50 was 3450 nM.

B3: cyclo(CH2CO-Gla1-Leu2-Tyr3-Glu4-Asn5-Val6-Gly7-Met8-Tyr9-Cys)-NH-Ala-Ala-Val-Ala-Leu-Leu-Pro-Ala-Val-Leu-Leu-Ala-Leu-Leu-Ala-Pro (peptide)
peptide: {CH2CO}-[Gla]LYENVGMYCAAVALLPAVLLALLAP-NH2
modifications: thioether N-10; not fully specified; printed as cyclo(CH2CO-Gla1-Leu2-Tyr3-Glu4-Asn5-Val6-Gly7-Met8-Tyr9-Cys)-NH-Ala-Ala-Val-Ala-Leu-Leu-Pro-Ala-Val-Leu-Leu-Ala-Leu-Leu-Ala-Pro
For the molecule B3, the IC50 in test [1] amounted to 2000 nM.

B4: cyclo(CH2CO-Adi1-Leu2-Tyr3-Adi4-Asn5-Val6-Gly7-Met8-Tyr9-Cys)-amide (peptide)
peptide: {CH2CO}-[Aad]LY[Aad]NVGMYC-NH2
modifications: thioether N-10
notes: as for B2
B4: the IC50 in test [3] came to 3050 nM.
